What was measured:
[1] = molecular target: T1, cynomolgus monkey transferrin receptor 1 (cTfR1) (cynomolgus monkey, UniProt H9EXL1 89-760 (rhesus entry)); assay: competition ELISA, Fab
T1 construct: The ELISA against cTfR1 is not described in the text

[2] = molecular target: T2, human transferrin receptor 1 (hTfR1) (human, UniProt P02786 89-760, limits assumed); assay: competition ELISA, Fab
T2 construct: The selections used the biotinylated ECD domain of hTfR1

[3] = molecular target: T3, his-tagged cTfR1 (Acro Biosystems p/n TFR-C524a) (cynomolgus monkey, UniProt H9EXL1 89-760 (rhesus entry)); assay: SPR, Biacore X100, His-tagged TfR1 captured by anti-His
T3 construct: Bought reagent of the SPR assay
Description: Samples were analyzed via Surface Plasmon Resonance (SPR) to determine kinetics against cynomolgus monkey transferrin receptor 1 (cTfR1). Briefly, a Biacore X100 (Cytiva) was used for SPR measurements using a CM5 chip (carboxymethylated dextran surface, Cytiva p/n BR100399) with anti-histidine antibody irreversibly immobilized on the surface of both flow cells for the reversible capture of his-tagged cTfR1 (Acro Biosystems p/n TFR-C524a). The anti-histidine antibody was irreversibly immobilized via amine coupling using Cytiva provided Amine Coupling Kit (p/n BR100050) and His Capture Kit (p/n 28995056). […] Sample diluent was prepared in house and is composed of 10 mM HEPES buffer pH 7.4, 150 mM NaCl, 3 mM EDTA, and 0.05% Tween 20. Cytiva caps and vials compatible for Biacore X₁₀₀ were used for sample analysis. Each analysis cycle consists of a capture step followed by sample or blank injection, and finally a regeneration step that removes any sample and cTfR1 on the sensor surface. The capture step was performed at 5 μL/min with a contact time of 24 seconds over the active flow cell only, followed by a fluidics wash with 0.1% Tween 20. Generally, 2 μg/mL hTfR1 was a sufficient concentration to observe adequate hTfR1 captured consistently between cycles. Sample or buffer was injected at 30 μL/min with a contact time of 180 seconds and dissociation time of 180 seconds followed by a fluidics wash with 0.1% Tween 20. A 10 mM glycine solution at pH 1.5 (provided in His Capture Kit) was used for regeneration at 30 μL/min with a 60 second contact time. A cycle was performed for each sample concentration analyzed along with one cycle repeating one concentration for variability evaluation and 2-3 buffer cycles. Results were analyzed in Biacore Evaluation Software. Buffer cycles were averaged and subtracted from sample injections prior to kinetic fitting. A monovalent or kinetic fit was specified as relevant for the sample analyzed. Accuracy of the fit is evaluated and data points are excluded as applicable.

[4] = molecular target: T2, human transferrin receptor 1 (hTfR1); assay: competition phage ELISA (phage-displayed Fab)
[5] = molecular target: T1, cynomolgus monkey transferrin receptor …; assay: competition phage ELISA (phage-displayed Fab)
[6] = molecular target: T4, his-tagged hTfR1 (Acro Biosystems p/n CD1-H5243) (human, UniProt P02786 89-760); assay: SPR, Biacore X100, His-tagged TfR1 captured by anti-His
T4 construct: Bought reagent of the SPR assay
Description: Samples were analyzed via Surface Plasmon Resonance (SPR) to determine kinetics against human transferrin receptor 1 (hTfR1). Briefly, a Biacore X100 (Cytiva) was used for SPR measurements using a CM5 chip (carboxymethylated dextran surface, Cytiva p/n BR100399) with anti-histidine antibody irreversibly immobilized on the surface of both flow cells for the reversible capture of his-tagged hTfR1 (Acro Biosystems p/n CD1-H5243). The anti-histidine antibody was irreversibly immobilized via amine coupling using Cytiva provided Amine Coupling Kit (p/n BR100050) and His Capture Kit (p/n 28995056). […] Sample diluent was prepared in house and is composed of 10 mM HEPES buffer pH 7.4, 150 mM NaCl, 3 mM EDTA, and 0.05% Tween 20. Cytiva caps and vials compatible for Biacore X100 are used for sample analysis. Each analysis cycle consists of a capture step followed by sample or blank injection, and finally a regeneration step that removes any sample and hTfR1 on the sensor surface. The capture step was performed at 5 μL/min with a contact time of 24 seconds over the active flow cell only, followed by a fluidics wash with 0.1% Tween 20. Generally, 2 μg/mL hTfR1 is a sufficient concentration to observe adequate hTfR1 captured consistently between cycles. Sample or buffer was injected at 30 μL/min with a contact time of 180 seconds and a dissociation time of 180 seconds followed by a fluidics wash with 0.1% Tween 20. A 10 mM glycine solution at pH 1.5 (provided in His Capture Kit) was used for regeneration at 30 μL/min with a 60 second contact time. A cycle was performed for each sample concentration analyzed along with one cycle repeating one concentration for variability evaluation and 2-3 buffer cycles. Results were analyzed in Biacore Evaluation Software. Buffer cycles were averaged and subtracted from sample injections prior to kinetic fitting. A monovalent or kinetic fit was specified as relevant for the sample analyzed. Accuracy of the fit was evaluated and data points are excluded as applicable. […]

T4 sequence (P02786 89-760 limits assumed): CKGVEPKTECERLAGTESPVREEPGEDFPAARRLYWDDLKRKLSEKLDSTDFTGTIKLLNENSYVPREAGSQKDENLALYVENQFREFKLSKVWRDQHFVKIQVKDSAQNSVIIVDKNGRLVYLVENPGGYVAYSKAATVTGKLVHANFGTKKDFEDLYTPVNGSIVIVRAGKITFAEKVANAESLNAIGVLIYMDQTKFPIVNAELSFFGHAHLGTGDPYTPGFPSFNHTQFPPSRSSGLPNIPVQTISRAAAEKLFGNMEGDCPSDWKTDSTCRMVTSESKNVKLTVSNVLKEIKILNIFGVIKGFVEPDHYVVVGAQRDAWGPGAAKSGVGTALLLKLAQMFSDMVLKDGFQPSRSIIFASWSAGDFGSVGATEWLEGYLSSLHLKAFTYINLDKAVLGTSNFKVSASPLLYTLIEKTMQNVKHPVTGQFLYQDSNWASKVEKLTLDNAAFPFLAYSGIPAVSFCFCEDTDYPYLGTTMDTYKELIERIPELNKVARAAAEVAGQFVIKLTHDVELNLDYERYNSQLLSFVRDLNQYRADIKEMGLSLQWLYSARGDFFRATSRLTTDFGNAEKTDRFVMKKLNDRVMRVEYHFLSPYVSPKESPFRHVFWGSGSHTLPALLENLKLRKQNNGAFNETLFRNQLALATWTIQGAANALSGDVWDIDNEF
T3 sequence (chain, as listed by the source): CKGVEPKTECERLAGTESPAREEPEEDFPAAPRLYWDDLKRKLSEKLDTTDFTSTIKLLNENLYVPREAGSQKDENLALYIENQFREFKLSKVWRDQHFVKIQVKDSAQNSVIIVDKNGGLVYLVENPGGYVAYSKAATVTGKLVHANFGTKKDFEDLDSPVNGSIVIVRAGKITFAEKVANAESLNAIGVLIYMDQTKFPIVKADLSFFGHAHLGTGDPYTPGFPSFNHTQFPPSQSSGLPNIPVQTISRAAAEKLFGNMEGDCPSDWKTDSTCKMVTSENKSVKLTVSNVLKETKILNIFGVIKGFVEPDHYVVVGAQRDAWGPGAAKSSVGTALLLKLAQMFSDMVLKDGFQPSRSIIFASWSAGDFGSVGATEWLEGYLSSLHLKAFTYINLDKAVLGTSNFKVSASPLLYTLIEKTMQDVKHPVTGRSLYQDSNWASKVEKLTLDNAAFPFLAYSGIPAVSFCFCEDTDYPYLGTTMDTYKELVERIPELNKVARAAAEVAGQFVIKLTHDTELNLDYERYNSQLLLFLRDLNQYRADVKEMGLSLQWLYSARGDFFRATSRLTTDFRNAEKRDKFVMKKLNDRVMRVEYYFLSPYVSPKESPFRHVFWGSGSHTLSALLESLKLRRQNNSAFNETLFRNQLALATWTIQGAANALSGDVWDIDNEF
T2 sequence (P02786 89-760 limits assumed): as the sequence (P02786 89-760 limits assumed) above
T1 sequence (chain, as listed by the source): as the sequence (chain, as listed by the source) above

Kd [1]: 33.8 nM
Kd [2]: 7.28 nM
Kd [3]: 25.2 nM
koff [3]: 0.0155 s⁻¹
kon [3]: 614000 M⁻¹ s⁻¹
Kd [4]: 2.8 nM
Kd [5]: 0.96 nM
Kd [6]: 7.68 nM
koff [6]: 0.00499 s⁻¹
kon [6]: 649000 M⁻¹ s⁻¹
B1: Fab0002 (Fab, V domains shown)
VH: EVQLVQSGAEVKKPGASVKVSCKASGYTFTSYWMHWVRQAPGQRLEWIGEINPTNGRTNYIEKFKSRATLTVDKSASTAYMELSSLRSEDTAVYYCARGTRAYHYWGQGTMVTVSS
VL: DIQMTQSPSSLSASVGDRVTITCRASDNLYSNLAWYQQKPGKSPKLLVYDATNLADGVPSRFSGSGSGTDYTLTISSLQPEDFATYYCQHFWGTPLTFGQGTKVEIKR

From US20260191981A1 (ARROWHEAD PHARMACEUTICALS, published 2026)
